Here are results for two proteins from article PMC3254808 (Biochemistry, 2011).

The series “cross-linking” deals with the molecule itself. Nature of the series: cross-linking.
Substrate in the series “oxygen electrode”: OC(CS)C(O)CS
Nature of the series: oxygen electrode. The format is biochemical, Saccharomyces cerevisiae. The settings on record: O2 as co-substrate, 50 mM Tris/HCl, 0.3 mM EDTA, pH 7.5, 25 °C.

B1: Erv2p, wild type (enzyme, yeast, UniProt Q12284 1-196, looked up)
chain: PGLIKAKSGIDEVQGAAAEKNDARLKEIEKQTIMPLMGDDKVKKEVGRASWKYFHTLLARFPDEPTPEEREKLHTFIGLYAELYPCGECSYHFVKLIEKYPVQTSSRTAAAMWGCHIHNKVNEYLKKDIYDCATILEDYDCGCSDSDGKRVSLEKEAKQHG
Turning to B1, in the series “cross-linking”, the stoichiometry N – broadly, the number of molecules, sites or subunits per partner or assembly – was 2.

B2: Erv2p (Saccharomyces cerevisiae S288C) (protein)
chain: MKQIVKRSHAIRIVAALGIIGLWMFFSSNELSIATPGLIKAKSGIDEVQGAAAEKNDARLKEIEKQTIMPLMGDDKVKKEVGRASWKYFHTLLARFPDEPTPEEREKLHTFIGLYAELYPCGECSYHFVKLIEKYPVQTSSRTAAAMWGCHIHNKVNEYLKKDIYDCATILEDYDCGCSDSDGKRVSLEKEAKQHG
On to B2, for which, in the series “oxygen electrode”, the Km (commonly the concentration of substrate that gives half-maximal velocity) is recorded as 7 ± 1 mM and the kcat – broadly, the maximal rate divided by the concentration of active sites – is 3.83 ± 0.13 s⁻¹.
